From US20050059589A1, “Methods and compositions for treating allergic reactions” (priority 1991, published 2005)

Legend:
[1] = test system: conjunctival allergic response to ryegrass allergen; assay: conjunctival provocation test (CPT) with ryegrass allergen; format: in vivo, human
Method: Ten ryegrass-sensitive patients with hay fever conjunctivitis and ten nonallergic subjects without ocular disease are challenged by weekly topical administration of ryegrass allergen for 4 weeks with 10 μl of four different allergen doses (10,000, 32,000, 100,000, and 320,000 BU/ml of ryegrass allergen) (Pharmalgen, Pharmacia Diagnostics AB, Uppsala, Sweden). Albumin diluent (Pharmacia), is used to dilute the allergen. Five of the patients and five of the nonallergic subjects are given allergen premixed with IL-1 receptor. The other five patients and subjects are given allergen without IL-1receptor. Importantly, the allergic patients and control subjects have no clinical symptoms before ocular provocation. […]
The challenge solution is administered to the contralateral eye in both patients and control subjects. Clinical conjunctival evaluation with tear-fluid cytology is assessed in both eyes before administration of allergen or buffer 20 minutes, one hour, and six hours after challenge. In both the allergic patients and control subjects, the following ocular symptoms, both subjective and objective, are evaluated by a physician: hyperemia, edema, tearing, and itching. Each symptom is scored from 0 to 4+ and graded as follows: 0—absent; 1+—mild; 2+—moderate; 3+—severe; and 4+—very severe. […]

[2] = test system: early and late phase response in nasal tissue of patients with seasonal allergic rhinitis; assay: nasal challenge with ragweed or mixed-grass pollen antigen; format: in vivo, human; conditions: prechallenge nasal lavages with IL-1 receptor versus buffer, 1000 PNU antigen, late and rechallenge reactions
Description: Sixteen patients with seasonal allergic rhinitis due to grass or ragweed pollens are selected.
Ragweed and mixed-grass pollen extracts (timothy, orchard, June and meadow grass in a ratio of 3:2:3:2) are purchased from Greer Laboratories (Lenoir, N.C.); lactated Ringer's solution and oxymetazoline hydrochloride (Afrin, Schering, Kenilworth, N.J.) are purchased from the hospital pharmacy.
At the time of the challenge, oxymetazoline hydrochloride is sprayed into the nose (two sprays per nostril) of all patients to prevent mucosal congestion, which would interfere with the collection of nasal secretions.
Eight of the sixteen patients receive four prechallenge nasal lavages with IL-1 receptor diluted in buffer; the remaining […] receive lavages with buffer only. Thereafter, challenges with 1000 PNU of antigen are undertaken.
The patients maintain a symptom score sheet during the challenge procedure. In addition to the number of sneezes, a six-point scale from 0 to 5 (with 0 equal to no symptoms and 5 equal to severe symptoms) is used to assess nasal secretion, blockage, and itching. The degree of blockage is, of course, underestimated on those score sheets because of the pretreatment with oxymetazoline hydrochloride. The presence or absence of symptoms correlates with the presence or absence of mediators during the late reaction.

[3] = test system: experimental autoimmune encephalomyelitis; conditions: interperitoneal administration; cited from earlier work
alloreactivity in vivo = conditions: systemic administration; cited from earlier work
[4] = test system: late phase reaction in lung tissue of patients with allergic bronchial asthma; assay: allergen inhalation (dust mite extract) with bronchoalveolar lavage; format: in vivo, human; conditions: allergen premixed with IL-1 receptor versus allergen alone
Method: In this example, twenty patients with documented allergic bronchial asthma participate. Allergen inhalation is performed by inhaling dust mite extract (see Example 1, above) at 15 minute intervals using a Wiesbadnener Doppelspray (8 L/min air flow, nebulizer output approximately 0.2 ml/min). Ten patients received the allergen premixed with IL-1 receptor; the other ten patients received the allergen alone.
Eosinophil granule major basic protein levels are markedly elevated in the lavage fluid of these asthmatic patients. Peripheral blood eosinophil counts decrease during late phase responses to antigen challenge at the time eosinophil levels in the pulmonary tissues increases, presumably because of margination and emigration in the lungs.

[5] = test system: cutaneous allergic reactions following the intradermal administration of antigen; assay: LPR skin test, intradermal challenge with dust mite antigen; format: in vivo, human; conditions: IL-1 receptor 1.65 mg/ml injected with dust mite antigen, versus allergen without receptor
Method: The LPR skin test is performed by interadermally injecting subjects on the forearm with test solution. The test solution contains the challenging antigen. Controls receive test solution without challenging antigen. The injection site is thereafter examined at intervals up to 96 hours. The diameters of the reactions are measured in two perpendicular directions and the characteristics are noted at different times.
The LPR gradually subsides over a 24 hour period. At the peak, the injection site is characterized by erythema, warmth, edema, pruritus and/or tenderness. The LPR is more extensive in area and produces greater discomfort then the early phase reaction.
Dust mite antigen is used (D. pteronyssinus; Allergy Laboratories of Ohio; 30,000 AU/ml). The soluble IL-1 receptor (Immunex Corp.; Seattle, Wash.) stock concentration is 10 mg/ml. Eight test solutions are prepared for intradermal injections (0.01 ml each) using TB syringes and disposable needles. Four intradermal test sites are used on each forearm.
Two test solutions are controls. […] Three concentrations of the antigen are evaluated (final concentrations: 1:500,000, 1:200,000, and 1:100,000).
The area of the wheal reaction is marked on the skin with a ball-point pen. […] The wheal reactions are then calculated by counting the squares within the pen-marked area.

B1: IL-1 receptor: soluble IL-1 receptor (Immunex Corp.; Seattle, Wash.), stock concentration 10 mg/ml (protein, UniProt P14778 18-336, looked up)
extracellular domain: LEADKCKEREEKIILVSSANEIDVRPCPLNPNEHKGTITWYKDDSKTPVSTEQASRIHQHKEKLWFVPAKVEDSGHYYCVVRNSSYCLRIKISAKFVENEPNLCYNAQAIFKQKLPVAGDGGLVCPYMEFFKNENNELPKLQWYKDCKPLLLDNIHFSGVKDRLIVMNVAEKHRGNYTCHASYTYLGKQYPITRVIEFITLEENKPTRPVIVSPANETMEVDLGSQIQLICNVTGQLSDIAYWKWNGSVIDEDDPVLGEDYYSVENPANKRRSTLITVLNISEIESRFYKHPFTCFAKNTHGIDAAYIQLIYPVTNFQK
modifications: extracellular domain
notes: soluble IL-1 receptor (Immunex Corp; Seattle, Wash.), stock concentration 10 mg/ml
immediate hypersensitivity ocular reaction (clinical response) ([1]; allergic subjects, allergen premixed with IL-1 receptor versus allergen without receptor, all allergen doses): significantly reduced response
increase in eosinophils in the tear fluid ([1]; highest allergen dose, 6 hours after provocation (late phase), allergic patients): not seen
nasal symptoms [2]: inhibits
release of histamine and other inflammatory mediators [2]: inhibits
severity of the disease [3]: reduced
survival of heart allografts (alloreactivity in vivo): prolonged
activation of mast cells, infiltration of the tissues by eosinophils and other inflammatory cells, tissue damage and dysfunction (histologic data) [4]: markedly suppressed
eosinophil emigration in the lungs (bronchoalveolar lavage) [4]: suppression
reduction of wheal at peak of LPR ([5]; LPR peak between eight and 13 hours): at least 50%
wheal area, early phase ([5]; twenty minutes post injection): reduced
